B1: TCN-032 Fab fragment (Fab, V domains shown)
VH: QVQLQESGPGLVKPSETLSLTCTVSGSSISNYYWSWIRQSPGKGLEWIGFIYYGGNTKYNPSLKSRVTISQDTSKSQVSLTMSSVTAAESAVYFCARASCSGGYCILDYWGQGTLVTVSS
VL: DIQMTQSPSSLSASVGDRVTITCRASQNIYKYLNWYQQRPGKAPKGLISAASGLQSGVPSRFSGSGSGTDFTLTITSLQPEDFATYYCQQSYSPPLTFGGGTRVEIK
B2: TCN-031 Fab fragment (Fab, V domains shown)
VH: EVQLVESGGGLVQPGGSLRISCAASGFTVSSNYMSWVRQAPGKGLEWVSVIYSGGSTYYADSVKGRFSFSRDNSKNTVFLQMNSLRAEDTAVYYCARCLSRMRGYGLDVWGQGTTVTVSS
VL: DIQMTQSPSSLSASVGDRVTITCRTSQSISSYLNWYQQKPGKAPKLLIYAASSLQSGVPSRFSGSGSGTDFTLTISGLQPEDFATYYCQQSYSMPAFGQGTKLEIK
B3: 3241_G23 (antibody, V domains shown)
VH: QVQLQQSGPGLVKPSQTLSLTCTVSGGPVSGGGYSWNWIRQRPGQGLEWVGFMFHSGSPRYNPTLKSRITISVDTSKNLVSLKLSSVTAADTAVYFCARVGQMDKYYAMDVWGQGTTVTVSS
VL: DIQMTQSPSSLSSSVGDRVTITCRASQSIGAYVNWYQQKAGKAPQVLIFGASNLQSGVPSRFSGSGSGTDFTLTISSLQPEDFATYFCQQTYSTPITFGQGTRLEIK
B4: 3136_G05 (antibody, V domains shown)
VH: QVQLQESGPGLVKPSETLSLTCSVSGGSISSDFWSWIRQPPGKGLEWIGYVYNRGSTKYSPSLKSRVTISADMSKNQFSLNMSSVTAADTAVYYCAKNGRSSTSWGIDVWGKGTTVTVSS
VL: DIQMTQSPSSLSASVGDRLTITCRASQSISTYLHWYQQKPGKAPKLLIYAASSLQSGVPSRFSGSRSGTDFTLTISSLQPDDFATYYCQQSYSPPLTFGPGTKVDMK
B5: 3245_O19 (antibody, V domains shown)
VH: EVQLVESGGGLVQPGGSLRLSCTASGLSVSSTYMNWVRQAPGKGLEWVSVFYSETRTYYADSVKGRFTVSRHNSNNTLYLQMNSLRVEDTAVYYCARVQRLSYGMDVWGQGTTVTVSS
VL: DIQMTQSPSSLSASVGDRVTITCRASQSISTYLNWYQKRPGKAPKLLVYGASTLQSGVPSRFSGSGSGTDFTLTIASLQPEDSATYYCQQTYSIPLFGQGTRLEIK
B6: 3244_H04 (antibody, V domains shown)
VH: EVQLVESGGGLVQPGGSLRLSCTASGLSVSSTYMNWVRQAPGKGLEWVSVFYSETRTYYADSVKGRFTVSRHNSNNTLYLQMNSLRAEDTAVYYCARVQRLSYGMDVWGQGTTVTVSS
VL: DIQMTQSPSSLSASVGDRVTITCRASQSISTYLNWYQKRPGKAPKLLVYGASSLQSGVPSRFSGSGSGTDFTLTIASLQPEDSAVYYCQQTYSIPLFGQGTRLEIK
B7: 3248_P18 (antibody, V domains shown)
VH: QVQLQESGPGLVKPSETLSLTCTVSGGSISAYHWSWIRQPPGKGLEWIGHIFDSGSTYYNPSLKSRVTISLDASKNQLSLRLTSVTASDTAIYYCARPLGSRYYYGMDVWGQGTTVTVSS
VL: DIQMTQSPSSLSASVGDRVTITCRASQSISRYLNWYQQKPGKAPKLLIYGASTLQNGAPSRFSGSGSGTDFTLTISSLQPEDSATYLCQQSYSVPAFGGGTKVEVK
B8: 3139_P23 (antibody, V domains shown)
VH: QVQLQESGPRLVKPSESLSLTCTVSGGSISNSFWGWIRQPPGEGLEWIGYVYNSGNTKYNPSLKSRVTISRDTSKSQLYMKLRSVTAADTAVYYCARHDDASHGYSISWGHGTLVTVSS
VL: DIQMTQSPSSLSASVGDRVTITCRASQTISTYLNWYQQKSGKAPKLLIYAASGLQSGVPSRFSGSGSGTDFTLTISSLQPEDFATYFCQQSYNTPLTFGQGTKVEIK
B9: 3260_D19 (antibody, V domains shown)
VH: DMQLVESGGGLVPPGGSLRLSCAASGFSVSDNYINWVRQAPGKGLDWVSVFYSADRTSYADSVKGRFTVSSHDSKNTVYLQMNSLRAEDTAVYYCARVQKSYYGMDVWGQGTTVTVSS
VL: GIQMTQSPSSLSASVGDRVTITCRASQSISRYLNWYLQKPGKAPKLLISGASSLQSGVPSRFSGTGSGTEFTLTISSLQPEDFATYYCQQTFSIPLFGQGTKVEIK
B10: 3242_P05 (antibody, V domains shown)
VH: DMQLVESGGGLVPPGGSLRLSCAASGFSVSDNYINWVRQAPGKGLDWVSVFYSADRTSYADSVKGRFTVSSHDSKNTVYLQMNSLRAEDTAVYYCARVQKSYYGMDVWGQGTTVTVSS
VL: GIQMTQSPSSLSASVGDRVTITCRASQSISRYLNWYLQKPGKAPKLLISGASSLQSGVPSRFSGTGSGTEFTLTISSLQPEDFATYYCQQTFSIPLFGQGTKVEIK
B11: 3244_I10 (antibody, V domains shown)
VH: QVQLQESGPGLLKPSDTLALTCTVSGGSITSDYWSWIRQPPGRGLDWIGFFYNGGSTKYNPSLKSRVTISADTSKNQLSLKLTSVTAADTGVYYCARHDAKFSGSYYVASWGQGTRVTVSS
VL: DIQMTQSPSSLSASVGDRVTISCRASQSISTYLNWYQQQPGKAPKVLIFGATNLQSGVPSRFSGSGSGTDFTLTISSLQPEDFATYYCQQSYNTPLIFGQGTKLEIK
B12: 3243_J07 (antibody, V domains shown)
VH: QVQLQESGPGLLKPSDTLALTCTVSGGSITSDYWSWIRQPPGRGLDWIGFFYNGGSTKYNPSLKSRVTISADTSKNQLSLKLTSVTAADTGVYYCARHDVKFSGSYYVASWGQGTRVTVSS
VL: DIQMTQSPSSLSASVGDRVTISCRASQSISTYLNWYQQQPGKAPKVLISGATNLQSGVPSRFSGSGSGTDFTLTISSLQPEDFATYYCQQSYNTPLIFGQGTKLEIK
B13: 3253_P10 (antibody, V domains shown)
VH: QVQLQESGPGLLKPSDTLALTCTVSGGSITSDYWSWIRQPPGRGLDWIGFFYNGGSTKYNPSLKSRVTISADTSKNQLSLKLTSVTAADTGVYYCARHDAKFSGSYYVASWGQGTRVTVSS
VL: DIQMTQSPSSLSASVGDRVTISCRASQSISTYLNWYQQQPGKAPKVLISGATDLQSGVPSRFSGSGSGTDFTLTISSLQPEDFATYYCQQSYNTPLIFGQGTKLEIK
B14: 3259_J21 (antibody, V domains shown)
VH: QVQLQESGPRVVRPSETLSLTCTVSGGSISSYNWIWIRQPPGKGLEWIGHIYDYGRTFYNSSLQSRPTISVDASKNQLSLRLTSVTASDTAVYYCARPLGILHYYAMDLWGQGTTVTVSS
VL: DIQMTQSPLSVSVSVGDRVTIACRASQSIDKFLNWYQQKPGKAPKLLIYGASNLHSGAPSRFSASGSGTDFTLTITNIQTEDFATYLCQQSFSVPAFGGGTKVEIK
B15: 3252_C13 (antibody, V domains shown)
VH: QVQLQESGPGLVKPSETLSLTCTVSGASISSDYWSWIRLPPGKGLEWIGYIYNRGSTKYTPSLKSRVTISLDTAENQFSLRLRSVTAADTAIYYCARHVGGHTYGIDYWGQGTLVTVSS
VL: DIQMTQSPSSLSASVGDRVTITCRASQSISNYLNWYQHKPGEAPKLLNYAASSLQSGVPSRFSASGSGTDFTLTISSLQPEDFATYYCQQSYNTPITFGQGTRLEIK
B16: 3362_B11 (antibody, V domains shown)
VH: QVQLQASGPGLVKPSETLSLTCTVSGDSITSGAYYWTWIRQHPGKGLEWIGYIYYSGNTYYNPSLKSRVTISLDTSKNQFSLKVNSVTAADTAVYYCARAASTSVLGYGMDVWGQGTTVTVSS
VL: DIQMTQSPSSLSASVGDRVTITCRASQSISRYLNWYQQEPGKAPKLLVYAASSLQSGVPSRFSGSGSGTDFTLTISSLQPEDFATYYCQQSYSTPLTFGQGTRLEIK
B17: 3255_J06 (antibody, V domains shown)
VH: QVQLQESGPGLVKPSETLSLTCTVSGASISSDYWSWIRLPPGKGLEWIGYIYNRGSTKYTPSLKSRVTISLDTAENQFSLRLRSVTAADTAVYYCARHVGGHTYGIDYWGQGTLVTVSS
VL: DIQMTQSPSSLSASVGDRVTITCRASQSISNYLNWYQHKPGEAPKLLNYAASSLQSGVPSRFSASGSGTDFTLSISGLQPEDFATYYCQQSYNTPITFGPGTRLEIK
B18: 3420_I23 (antibody, V domains shown)
VH: QVQLQESGPGLVKPSETLSVTCKVSGDSISSYSWSWIRQPPGKGLEWVGYLYYSGSTKYNPSLKSRTTISVDTSTNQLSLKLSFVTAADTAVYFCARTGSESTTGYGMDVWGQGTTVTVSS
VL: DIQMTQSPSSLSASVGDRVTITCRASQSISTYLNWYQQKPGKAPKLLIYAASSLHSGVPSRFSGSGSGTDFALTISSLQPEDFATYYCQQSYSPPITFGQGTRLEIK

The molecules below were run against M2 protein on influenza A/Puerto Rico/8/34 (H1N1) virus particles (Influenza A virus A/Puerto Rico/8/34 …, UniProt P06821 1-97) (assay: surface plasmon resonance, Fab on influenza virus).

First: B1
Second: B2
The Kd of the first is 4.4-fold lower: 3.2 nM for the first, 14 nM for the second.

Compared with B1, B2 is 6.1-fold higher in koff: 0.0023 s⁻¹ for the first, 0.014 s⁻¹ for the second.

B1 and B2 are within 1.5-fold of each other in kon: 740000 M⁻¹ s⁻¹ for the first, 1e+06 M⁻¹ s⁻¹ for the second.

The molecules below were run against M2 protein of A/Hong Kong/483/1997, on cells (Influenza A virus A/Hong Kong/483/97 (H5N1)) (assay: FACS, supernatant on CHO cells stably expressing M2 of A/Hong Kong/483/97).

Compared with B3, B4 is lower in FACS M2-HK MFI: 1700 MFI for the first, 109 MFI for the second.

Compared with B5, B6 is higher in FACS M2-HK MFI: 919 MFI for the first, 963 MFI for the second.

Compared with B7, B8 is lower in FACS M2-HK MFI: 967 MFI for the first, 110 MFI for the second.

First: B9
Second: B10
The FACS M2-HK MFI of the first is higher: 846 MFI for the first, 596 MFI for the second.

Going from B11 to B12, the FACS M2-HK MFI falls from 434 MFI to 131 MFI.

First: B13
Second: B14
The FACS M2-HK MFI of the first is lower: 43 MFI for the first, 1670 MFI for the second.

Compared with B15, B16 is lower in FACS M2-HK MFI: 449 MFI for the first, 218 MFI for the second.

First: B17
Second: B18
The FACS M2-HK MFI of the first is higher: 442 MFI for the first, 112 MFI for the second.

These molecules were tested against M2 protein of A/Puerto Rico/8/34 (H1N1), on cells (Influenza A virus A/Puerto Rico/8/34 (H1N1)) (UniProt P06821) (assay: flow cytometry on MDCK cells infected with A/Puerto Rico/8/34).

Going from TCN-032 (antibody) to TCN-031 (antibody), the EC50 (read off the curve) rises from 0.1 µg/mL to 0.2 µg/mL (2-fold).
